The results in this text go back to patent publication US20020025510A1, “Screening methods based on superactivated alpha V beta 3 integrin” (priority 2000, published 2002).

In assay [1] the target is integrin αvβ3 modified by MT1-MMP, on β3/MT-MCF7 cells (human) (UniProt P06756). The assay can be described thus: flow cytometry, β3/MT-MCF7 cells stained with 5 µg/ml LM609, n=11. A general note: A flow cytometer gives signals particle by particle.
Assay [2] has as its target integrin αvβ3 with the wild type β3 subunit, on β3-MCF7 cells (human) (UniProt P06756). The assay can be described thus: flow cytometry, β3-MCF7 cells stained with 5 µg/ml LM609, n=11.
Assay [3] addresses integrin αvβ3 modified by MT1-MMP, on β3/MT-MCF7 cells (human) (UniProt P06756). The assay can be described thus: cell-based or functional assay.
The test system of a further assay is β3 integrin subunit. Put plainly: Immunoprecipitation and Western blotting of the β3 integrin subunit from surface-biotinylated cells. As to conditions: cells incubated with 50 μM for 48 hours; precipitated with mAb L230; 90 kDa without inhibitor. Type of assay: cell-based, human. As for the experimental part: Immunoprecipitation and Western blotting were performed as follows. Confluent cells were surface biotinylated with 0.1 mg/ml of Sulfo-NHS-LC-Biotin (Pierce, Rockford, Ill.). Where indicated, the cells were incubated prior to biotinylation with 50 μM Batimastat for 48 hours in AIM-V medium (GibcoBRL). Cells were solubilized at 10^7/ml in lysis buffer (50 mM n-octyl-(-D-glucopyranoside in 50 mM TBS, pH 7.4/1 mM CaCl2/1 mM MgCl2/1 mM PMSF/10 μg/ml leupeptin/10 μg/ml pepstatin) for one hr on ice. Insoluble material was removed by centrifugation. Supernatants were precleared for two hours at 4° C. with Protein A-Agarose (Calbiochem, La Jolla, Calif.). Precleared supernatants (100-150 μl) were incubated overnight at 4° C. with 3 μg of the indicated antibodies. The immune complexes were collected on Protein A-Agarose 15 μl of a 50% slurry) during a two hour incubation at room temperature. Following washes with washing buffer (50 mM Tris, pH 7.4/0.5 M NaCl/0.1% Tween 20), the beads were treated with 4% SDS in 125 mM Tris, pH 6.8/20% glycerol buffer, and boiled. […]

Chain of UniProt P06756 (P06756 31-1048 limits assumed, chain 1 of 2): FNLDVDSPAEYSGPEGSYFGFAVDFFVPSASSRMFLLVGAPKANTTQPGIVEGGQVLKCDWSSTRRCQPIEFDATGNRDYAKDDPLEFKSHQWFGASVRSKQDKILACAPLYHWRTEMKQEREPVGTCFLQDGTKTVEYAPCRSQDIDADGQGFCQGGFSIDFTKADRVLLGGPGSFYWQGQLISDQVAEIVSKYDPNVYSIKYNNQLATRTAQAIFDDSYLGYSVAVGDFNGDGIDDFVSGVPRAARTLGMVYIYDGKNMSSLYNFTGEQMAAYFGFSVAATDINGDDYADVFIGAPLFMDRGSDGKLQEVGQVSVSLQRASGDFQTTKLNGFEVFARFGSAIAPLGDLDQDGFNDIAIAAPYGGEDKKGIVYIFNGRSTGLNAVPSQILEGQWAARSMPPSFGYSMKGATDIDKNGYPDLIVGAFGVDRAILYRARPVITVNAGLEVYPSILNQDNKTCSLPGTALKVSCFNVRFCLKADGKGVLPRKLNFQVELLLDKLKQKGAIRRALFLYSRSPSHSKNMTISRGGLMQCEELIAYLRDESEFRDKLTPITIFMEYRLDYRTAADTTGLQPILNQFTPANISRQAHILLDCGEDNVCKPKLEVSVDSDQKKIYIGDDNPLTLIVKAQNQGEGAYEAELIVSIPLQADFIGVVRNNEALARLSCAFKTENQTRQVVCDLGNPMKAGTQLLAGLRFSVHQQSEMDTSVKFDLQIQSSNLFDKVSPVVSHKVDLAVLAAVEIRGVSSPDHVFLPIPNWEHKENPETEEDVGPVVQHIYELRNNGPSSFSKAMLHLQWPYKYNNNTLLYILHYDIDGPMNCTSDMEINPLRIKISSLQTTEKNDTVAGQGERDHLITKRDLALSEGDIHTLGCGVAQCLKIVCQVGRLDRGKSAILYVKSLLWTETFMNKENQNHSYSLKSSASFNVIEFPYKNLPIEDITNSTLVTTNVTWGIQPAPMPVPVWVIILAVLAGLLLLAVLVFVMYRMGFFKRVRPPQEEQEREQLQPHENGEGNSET
Chain of UniProt P06756 (chain, as listed by the source limits assumed, chain 2 of 2): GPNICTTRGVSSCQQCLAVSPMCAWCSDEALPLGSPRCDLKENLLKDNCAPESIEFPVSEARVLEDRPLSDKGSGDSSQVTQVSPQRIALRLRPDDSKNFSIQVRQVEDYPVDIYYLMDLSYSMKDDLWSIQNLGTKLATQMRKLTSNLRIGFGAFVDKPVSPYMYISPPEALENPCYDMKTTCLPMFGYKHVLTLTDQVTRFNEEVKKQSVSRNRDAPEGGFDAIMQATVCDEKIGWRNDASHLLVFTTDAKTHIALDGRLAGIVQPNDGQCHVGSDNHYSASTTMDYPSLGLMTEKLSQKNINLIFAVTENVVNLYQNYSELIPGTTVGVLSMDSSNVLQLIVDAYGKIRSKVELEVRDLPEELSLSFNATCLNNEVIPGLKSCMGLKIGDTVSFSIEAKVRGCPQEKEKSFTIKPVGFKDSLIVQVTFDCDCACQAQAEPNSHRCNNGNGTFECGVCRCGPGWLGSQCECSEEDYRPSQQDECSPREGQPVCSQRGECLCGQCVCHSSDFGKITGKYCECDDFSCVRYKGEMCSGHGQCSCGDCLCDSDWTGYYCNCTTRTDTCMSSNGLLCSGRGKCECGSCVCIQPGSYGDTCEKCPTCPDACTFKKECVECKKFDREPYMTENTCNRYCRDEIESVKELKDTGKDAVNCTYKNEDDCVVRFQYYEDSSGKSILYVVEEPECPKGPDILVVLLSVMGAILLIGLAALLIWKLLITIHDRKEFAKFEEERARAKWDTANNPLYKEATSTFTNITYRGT

In the case of “murine mAb LM609 specific to integrin αvβ3 (antibody)”, the mean fluorescence intensity in assay [1] was 35.5; in assay [2], 38.7.
Turning to “vitronectin (from UniProt P04004 20-478) (ligand)”, the cells migrating to the vitronectin-coated membrane undersurface (Transwell, 48 hours) in assay [3] came out at 23300 cells.
For the compound `CNC(=O)[C@H](Cc1ccccc1)NC(=O)[C@H](CC(C)C)[C@H](CSc1cccs1)C(=O)NO` [Batimastat], the “Apparent molecular mass of the β3 integrin subunit from β3/MT-MCF7 cells” value with β3 integrin subunit came to 95 kDa.
